Reference: patent US11547674B2, “Protein-polymer hybrid biomaterials” (The Regents of the University of California, priority 2018, dated 2023)

Columns and labels:
[1] = Circular dichroism thermostability scan of LDH; type: physicochemical; conditions: ˜60° C.
Description: The tertiary structure and thermostability of WT and mutant LDH were obtained following the protocol of Molino et al. Jasco 810 spectropolarimeter equipped with Jasco Peltier temperature controller (Jasco, Easton, Md.) were used to measure the far-UV circular dichroism (CD). LDH samples were prepared at a concentration of 0.06 mg/ml in 50 mM potassium phosphate and 100 mM NaCl. Samples were scanned between 200-260 nm at 25 C at scanning speed of 10 nm/min in 0.1 pathlength quartz cells. Thermal unfolding was monitored at ellipticity at 217 nm from 60° C. to 90° C. at a heating rate of 1° C./min.

[2] = LDH enzyme kinetics (NADH generation, absorbance at 340 nm); type: biochemical, Bacillus stearothermophilus
Description: Enzyme kinetics was measured by absorbance increase at 340 nm in the generation of NADH. All assays were done at 25° C. and in 100 mM triethanolamine hydrochloride buffer following the protocols of Clarke et al. (Clarke, A. R., Wilks, H. M., Barstow, D. A., Atkinson, T., Chia, W. N. & Holbrook, J. J. An Investigation of the Contribution Made by the Carboxylate Group of an Active Site Histidine-Aspartate Couple to Binding and Catalysis in Lactate Dehydrogenase. Biochemistry 27, 1617-1622 (1988)]. Enzyme concentration of 100 nM were mixed with 10 mM NAD+ and 20 mM FBP with varying lactate concentrations for the assay. Km and Kcat were determined using GraphPad Michaelis-Menten curve fit.
Protocols for determining Kcat and Km of LDH were based on previous studies by Clarke et al.^48 Enzyme kinetics were measured by absorbance increases at 340 nm in the generation of NADH. All assays were done at 25° C. and in 100 mM triethanolamine hydrochloride buffer. Enzyme at 100 nM was mixed with 10 mM NAD^+ and 20 mM FBP with varying lactate concentrations. The initial slope of the absorbance vs. time was obtained for a range of lactate concentrations. This initial slope vs. concentration of lactate was plotted in GraphPad Prism and kinetic parameters (Km and kcat) were determined using a non-linear curve fit to the Michaelis-Menten equation.

[3] = 25° C., 100 nM enzyme, 10 mM NAD+, 20 mM FBP, varying lactate

B1: Wt-LDH: thermostable recombinant wild-type lactate dehydrogenase, amino acid sequence from Bacillus stearothermophilus (protein, UniProt P00344 1-317, looked up)
L-lactate dehydrogenase: MKNNGGARVVVIGAGFVGASYVFALMNQGIADEIVLIDANESKAIGDAMDFNHGKVFAPKPVDIWHGDYDDCRDADLVVICAGANQKPGETRLDLVDKNIAIFRSIVESVMASGFQGLFLVATNPVDILTYATWKFSGLPHERVIGSGTILDTARFRFLLGEYFSVAPQNVHAYIIGEHGDTELPVWSQAYIGVMPIRKLVESKGEEAQKDLERIFVNVRDAAYQIIEKKGATYYGIAMGLARVTRAILHNENAILTVSAYLDGLYGERDVYIGVPAVINRNGIREVIEIELNDDEKNRFHHSAATLKSVLARAFTR
- denaturation at the NP reaction temperature [1]: does not denature
- catalytic activity of LDH [2]: catalytic
- Kcat [2, 3]: 8.8 s⁻¹
- Km [2, 3]: 38.5 mM
